In PMC5719983, “The Cryoelectron Microscopy Structure of the Type 1 Chaperone-Usher Pilus Rod” (Structure(London, England:1993), 2017):

Target: the molecule itself
Experiment: co-sedimentation; in vitro assembly of FimA monomers to pilus rods: 50 μM FimA monomer in 20 mM acetic acid-NaOH pH 5.0, 150 mM NaCl, 7 days; rods pelleted at 186'000 x g, 10 min, 4°C

B1: Mature FimA without its natural signal sequence (159 residues), refolded FimA monomer (natural protein)
chain: AATTVNGGTVHFKGEVVNAACAVDAGSVDQTVQLGQVRTASLAQEGATSSAVGFNIQLNDCDTNVASKAAVAFLGTAIDAGHTNVLALQSSAAGSATNVGVQILDRTGAALTLDGATFSSETTLNNGTNTIPFQARYFATGAATPGAANADATFKVQYQ
notes: the N-terminal methionine added for cytoplasmic expression was cleaved off quantitatively (measured 15826.0 Da). numbers count on: the mature protein; also called pili assembled in vitro
B1: binds.
